Assays:
[1] = biological target: scTCR-AGD-CD4TM-hζ (human) (UniProt P01730); assay: flow cytometry, 293H cells transfected with scTCR-AGD-CD4TM-hζ; bar marked **. Reference bars: 293H 1.1, Control vector 1.4
scTCR-CD4TM-hζ (human) = scTCR-CD4TM-hζ (human) (UniProt P01730); assay: flow cytometry, 293H cells transfected with scTCR-CD4TM-hζ. Reference bars: 293H 1.1, Control vector 1.4
[2] = biological target: MA scTCR (single chain Vα23.1Jα14.3-linker-Vβ8.3DβJβ1.2-Cβ2 fused through a thrombin-site linker to the murine CD3 ξ chain), displayed on transfected RBL or BWZ cells (human; mouse); assay: flow cytometry, 293H cells transfected with scTCR; bar marked **. Reference bars: 293H 1.1, Control vector 1.4

- Fold increase in MFI [1]: 6.5 fold
- Fold increase in MFI (scTCR-CD4TM-hζ (human)): 2.1 fold
- Fold increase in MFI [2]: 4.4 fold
Substance: anti-TCR βF1 antibody
